# Experimental data reported in IntAct's records for PubMed 31515488.
# B1: Tubby-related protein 3 (Homo sapiens), O75386 (parent)
# chain: MEASRCRLSPSGDSVFHEEMMKMRQAKLDYQRLLLEKRQRKKRLEPFMVQPNPEARLRRAKPRASDEQTPLVNCHTPHSNVILHGIDGPAAVLKPDEVHAPSVSSSVVEEDAENTVDTASKPGLQERLQKHDISESVNFDEETDGISQSACLERPNSASSQNSTDTGTSGSATAAQPADNLLGDIDDLEDFVYSPAPQGVTVRCRIIRDKRGMDRGLFPTYYMYLEKEENQKIFLLAARKRKKSKTANYLISIDPVDLSREGESYVGKLRSNLMGTKFTVYDRGICPMKGRGLVGAAHTRQELAAISYETNVLGFKGPRKMSVIIPGMTLNHKQIPYQPQNNHDSLLSRWQNRTMENLVELHNKAPVWNSDTQSYVLNFRGRVTQASVKNFQIVHKNDPDYIVMQFGRVADDVFTLDYNYPLCAVQAFGIGLSSFDSKLACE
# B2: Ras-related protein Rab-39B (Homo sapiens), Q96DA2 (parent)
# chain: MEAIWLYQFRLIVIGDSTVGKSCLIRRFTEGRFAQVSDPTVGVDFFSRLVEIEPGKRIKLQIWDTAGQERFRSITRAYYRNSVGGLLLFDITNRRSFQNVHEWLEETKVHVQPYQIVFVLVGHKCDLDTQRQVTRHEAEKLAAAYGMKYIETSARDAINVEKAFTDLTRDIYELVKRGEITIQEGWEGVKSGFVPNVVHSSEEVVKSERRCLC
# partner: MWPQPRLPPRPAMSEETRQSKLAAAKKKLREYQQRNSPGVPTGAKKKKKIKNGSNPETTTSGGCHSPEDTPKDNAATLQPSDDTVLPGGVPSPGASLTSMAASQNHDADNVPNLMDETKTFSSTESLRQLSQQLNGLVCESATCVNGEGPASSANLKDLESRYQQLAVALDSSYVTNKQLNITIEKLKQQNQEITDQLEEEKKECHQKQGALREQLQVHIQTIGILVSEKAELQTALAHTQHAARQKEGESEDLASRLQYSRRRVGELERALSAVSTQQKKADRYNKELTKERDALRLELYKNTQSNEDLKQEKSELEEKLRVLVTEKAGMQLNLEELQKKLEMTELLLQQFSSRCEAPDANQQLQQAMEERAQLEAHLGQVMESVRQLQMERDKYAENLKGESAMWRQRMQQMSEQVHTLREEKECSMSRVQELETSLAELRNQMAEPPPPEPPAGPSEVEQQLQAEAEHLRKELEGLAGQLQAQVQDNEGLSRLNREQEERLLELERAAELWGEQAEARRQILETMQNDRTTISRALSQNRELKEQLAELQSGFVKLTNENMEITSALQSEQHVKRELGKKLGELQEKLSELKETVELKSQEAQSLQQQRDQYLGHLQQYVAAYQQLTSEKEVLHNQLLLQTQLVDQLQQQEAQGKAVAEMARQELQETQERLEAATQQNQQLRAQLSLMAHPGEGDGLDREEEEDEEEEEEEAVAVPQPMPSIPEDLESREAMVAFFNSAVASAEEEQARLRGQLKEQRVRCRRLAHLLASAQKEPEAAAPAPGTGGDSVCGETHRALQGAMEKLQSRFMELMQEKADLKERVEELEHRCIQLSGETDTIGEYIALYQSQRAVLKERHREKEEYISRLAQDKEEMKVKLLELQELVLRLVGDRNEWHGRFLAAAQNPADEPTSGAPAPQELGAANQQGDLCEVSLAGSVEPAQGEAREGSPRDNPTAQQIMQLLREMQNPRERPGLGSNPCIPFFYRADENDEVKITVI
# B3: Cyclin-D1-binding protein 1 (Homo sapiens), O95273 (parent)
# chain: MASATAPAAAVPTLASPLEQLRHLAEELRLLLPRVRVGEAQETTEEFNREMFWRRLNEAAVTVSREATTLTIVFSQLPLPSPQETQKFCEQVHAAIKAFIAVYYLLPKDQGITLRKLVRGATLDIVDGMAQLMEVLSVTPTQSPENNDLISYNSVWVACQQMPQIPRDNKAAALLMLTKNVDFVKDAHEEMEQAVEECDPYSGLLNDTEENNSDNHNHEDDVLGFPSNQDLYWSEDDQELIIPCLALVRASKACLKKIRMLVAENGKKDQVAQLDDIVDISDEISPSVDDLALSIYPPMCHLTVRINSAKLVSVLKKALEITKASHVTPQPEDSWIPLLINAIDHCMNRIKELTQSELEL
# partner: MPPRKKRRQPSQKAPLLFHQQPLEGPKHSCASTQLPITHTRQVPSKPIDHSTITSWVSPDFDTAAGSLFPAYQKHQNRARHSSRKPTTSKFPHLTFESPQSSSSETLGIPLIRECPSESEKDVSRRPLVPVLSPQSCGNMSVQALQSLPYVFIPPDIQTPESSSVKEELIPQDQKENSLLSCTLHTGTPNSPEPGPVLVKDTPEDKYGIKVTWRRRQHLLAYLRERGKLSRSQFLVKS
# B4: Pre-B-cell leukemia transcription factor 4 (Homo sapiens), Q9BYU1 (parent)
# chain: MAAPPRPAPSPPAPRRLDTSDVLQQIMAITDQSLDEAQARKHALNCHRMKPALFSVLCEIKEKTVVSIRGIQDEDPPDAQLLRLDNMLLAEGVCRPEKRGRGGAVARAGTATPGGCPNDNSIEHSDYRAKLSQIRQIYHSELEKYEQACREFTTHVTNLLQEQSRMRPVSPKEIERMVGAIHGKFSAIQMQLKQSTCEAVMTLRSRLLDARRKRRNFSKQATEVLNEYFYSHLNNPYPSEEAKEELARKGGLTISQVSNWFGNKRIRYKKNMGKFQEEATIYTGKTAVDTTEVGVPGNHASCLSTPSSGSSGPFPLPSAGDAFLTLRTLASLQPPPGGGCLQSQAQGSWQGATPQPATASPAGDPGSINSSTSN
# B5: Transmembrane protein 79 (Homo sapiens), Q9BSE2 (parent)
# chain: MTEQETLALLEVKRSDSPEKSSPQALVPNGRQPEGEGGAESPGAESLRVGSSAGSPTAIEGAEDGLDSTVSEAATLPWGTGPQPSAPFPDPPGWRDIEPEPPESEPLTKLEELPEDDANLLPEKAARAFVPIDLQCIERQPQEDLIVRCEAGEGECRTFMPPRVTHPDPTERKWAEAVVRPPGCSCGGCGSCGDREWLRAVASVGAALILFPCLLYGAYAFLPFDVPRLPTMSSRLIYTLRCGVFATFPIVLGILVYGLSLLCFSALRPFGEPRREVEIHRRYVAQSVQLFILYFFNLAVLSTYLPQDTLKLLPLLTGLFAVSRLIYWLTFAVGRSFRGFGYGLTFLPLLSMLMWNLYYMFVVEPERMLTATESRLDYPDHARSASDYRPRPWG
# partner: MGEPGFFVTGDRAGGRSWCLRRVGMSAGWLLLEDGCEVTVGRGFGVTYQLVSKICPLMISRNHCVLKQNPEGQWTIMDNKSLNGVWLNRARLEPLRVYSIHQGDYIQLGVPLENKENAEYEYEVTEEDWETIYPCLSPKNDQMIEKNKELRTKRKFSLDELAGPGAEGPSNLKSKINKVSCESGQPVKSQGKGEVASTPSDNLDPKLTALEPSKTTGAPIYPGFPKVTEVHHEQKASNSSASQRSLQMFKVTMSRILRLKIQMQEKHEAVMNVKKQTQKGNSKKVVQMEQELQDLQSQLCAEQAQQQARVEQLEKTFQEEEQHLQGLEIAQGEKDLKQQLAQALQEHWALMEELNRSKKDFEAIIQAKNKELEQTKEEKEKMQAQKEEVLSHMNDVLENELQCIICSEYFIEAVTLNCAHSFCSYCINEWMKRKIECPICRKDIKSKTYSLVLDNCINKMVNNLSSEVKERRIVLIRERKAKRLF
# B6: Microtubule-associated tumor suppressor candidate 2 (Homo sapiens), Q5JR59-3 (parent)
# chain: MGHCCCKPYNCLQCLDKTNESALVKEKELSIELANIRDEVAFHTAKCEKLQKEKEELERRFEDEVKRLGWQQQAELQELEERLQLQFEAEMARLQEEHGDQLLSIRCQHQEQVEDLTASHDAALLEMENNHTVAITILQDDHDHKVQELMSTHELEKKELEENFEKLRLSLQDQVDTLTFQSQSLRDRARRFEEALRKNTEEQLEIALAPYQHLEEDMKSLKQVLEMKNQQIHEQEKKILELEKLAEKNIILEEKIQVLQQQNEDLKARIDQNTVVTRQLSEENANLQEYVEKETQEKKRLSRTNEELLWKLQTGDPTSPIKLSPTSPVYRGSSSGPSSPARVSTTPR
# partner: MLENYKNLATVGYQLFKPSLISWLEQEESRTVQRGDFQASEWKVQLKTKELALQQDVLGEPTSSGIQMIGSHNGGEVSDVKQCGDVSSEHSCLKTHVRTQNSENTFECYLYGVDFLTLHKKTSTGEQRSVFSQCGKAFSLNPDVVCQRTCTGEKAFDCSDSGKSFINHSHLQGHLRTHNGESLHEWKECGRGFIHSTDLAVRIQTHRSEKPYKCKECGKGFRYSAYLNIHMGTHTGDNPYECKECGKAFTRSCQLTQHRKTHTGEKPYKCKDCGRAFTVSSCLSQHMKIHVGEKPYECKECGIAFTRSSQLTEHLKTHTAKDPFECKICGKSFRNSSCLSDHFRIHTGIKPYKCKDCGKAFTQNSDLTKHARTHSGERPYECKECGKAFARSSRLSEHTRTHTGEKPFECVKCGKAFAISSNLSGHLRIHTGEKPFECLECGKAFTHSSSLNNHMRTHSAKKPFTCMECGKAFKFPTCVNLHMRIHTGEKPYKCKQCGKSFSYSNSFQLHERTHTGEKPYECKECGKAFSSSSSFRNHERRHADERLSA
# B7: Microtubule-associated tumor suppressor candidate 2 (Homo sapiens), Q5JR59-3 (parent)
# chain: B6 chain
# partner: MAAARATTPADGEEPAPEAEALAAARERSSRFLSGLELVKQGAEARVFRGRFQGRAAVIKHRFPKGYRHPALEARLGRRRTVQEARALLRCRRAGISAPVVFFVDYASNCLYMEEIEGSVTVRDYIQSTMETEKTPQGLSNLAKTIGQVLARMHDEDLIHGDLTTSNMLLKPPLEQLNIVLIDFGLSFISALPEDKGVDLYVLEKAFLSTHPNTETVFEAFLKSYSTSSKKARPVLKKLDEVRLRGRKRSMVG
# Variants of: B1
# Conditions: with maga6_human MAGEA6, P43360
# Sequence of maga6_human MAGEA6, P43360 (P43360 whole entry): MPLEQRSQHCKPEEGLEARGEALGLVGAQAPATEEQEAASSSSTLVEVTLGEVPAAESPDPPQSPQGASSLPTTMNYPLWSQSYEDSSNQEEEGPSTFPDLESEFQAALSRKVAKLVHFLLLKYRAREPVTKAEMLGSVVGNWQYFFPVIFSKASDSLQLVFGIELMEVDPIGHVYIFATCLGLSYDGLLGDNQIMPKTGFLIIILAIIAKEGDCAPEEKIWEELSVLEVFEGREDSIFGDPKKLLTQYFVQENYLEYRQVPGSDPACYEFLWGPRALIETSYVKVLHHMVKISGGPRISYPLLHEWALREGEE
row,Variant,effect of a mutation on the interaction
1,G267S,disrupting interaction strength

# Variants of: B1
# Conditions: with anr54_human ANKRD54, Q6NXT1
# Sequence of anr54_human ANKRD54, Q6NXT1 (Q6NXT1 whole entry): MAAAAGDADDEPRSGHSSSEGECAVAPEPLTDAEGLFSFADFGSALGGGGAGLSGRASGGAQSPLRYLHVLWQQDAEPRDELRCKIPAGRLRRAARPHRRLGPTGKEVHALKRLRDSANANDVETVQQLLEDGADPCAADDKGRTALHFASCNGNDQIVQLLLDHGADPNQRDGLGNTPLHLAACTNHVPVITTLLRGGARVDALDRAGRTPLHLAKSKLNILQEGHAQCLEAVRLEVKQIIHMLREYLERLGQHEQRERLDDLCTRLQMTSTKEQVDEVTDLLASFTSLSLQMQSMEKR
row,Variant,effect of a mutation on the interaction
1,G267S,with no effect

# Variants of: B2
# Conditions: with goga2_human GOLGA2, Q08379
row,Variant,effect of a mutation on the interaction
1,R177S,with no effect

# Variants of: B3
# Conditions: with rhno1_human RHNO1, Q9BSD3
row,Variant,effect of a mutation on the interaction
1,I277T,disrupting interaction strength

# Variants of: B4
# Conditions: with tfp11_human TFIP11, Q9UBB9
# Sequence of tfp11_human TFIP11, Q9UBB9 (Q9UBB9 whole entry): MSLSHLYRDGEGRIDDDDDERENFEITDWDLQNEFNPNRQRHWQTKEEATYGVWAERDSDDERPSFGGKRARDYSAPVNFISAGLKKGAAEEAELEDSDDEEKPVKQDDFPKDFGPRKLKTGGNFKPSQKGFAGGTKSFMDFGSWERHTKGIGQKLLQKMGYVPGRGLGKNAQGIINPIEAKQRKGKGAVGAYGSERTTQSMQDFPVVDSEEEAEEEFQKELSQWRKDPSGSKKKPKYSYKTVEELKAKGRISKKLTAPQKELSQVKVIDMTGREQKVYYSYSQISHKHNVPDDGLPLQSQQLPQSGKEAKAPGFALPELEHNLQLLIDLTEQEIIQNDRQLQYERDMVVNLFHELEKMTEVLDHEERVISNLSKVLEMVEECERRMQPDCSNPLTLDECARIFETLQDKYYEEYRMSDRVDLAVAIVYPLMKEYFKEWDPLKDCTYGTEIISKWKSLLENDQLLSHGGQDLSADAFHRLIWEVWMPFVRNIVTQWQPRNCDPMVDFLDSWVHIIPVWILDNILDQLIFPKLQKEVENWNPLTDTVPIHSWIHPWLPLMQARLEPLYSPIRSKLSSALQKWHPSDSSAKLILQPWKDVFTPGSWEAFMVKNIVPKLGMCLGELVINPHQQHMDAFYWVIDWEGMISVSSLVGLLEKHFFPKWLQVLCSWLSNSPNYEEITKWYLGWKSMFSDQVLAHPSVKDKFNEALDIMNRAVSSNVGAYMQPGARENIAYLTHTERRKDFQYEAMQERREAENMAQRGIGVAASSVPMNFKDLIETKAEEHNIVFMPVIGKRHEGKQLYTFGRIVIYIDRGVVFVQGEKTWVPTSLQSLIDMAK
row,Variant,effect of a mutation on the interaction
1,R327Q,with no effect
2,T154M,with no effect
3,T283M,with no effect

# Variants of: B5
# Conditions: with rnf8_human RNF8, O76064
row,Variant,effect of a mutation on the interaction
1,S104T,with no effect
2,V147M,with no effect
3,D144G,with no effect

# Variants of: B6
# Conditions: with zn266_human ZNF266, Q14584
row,Variant,effect of a mutation on the interaction
1,A89V,with no effect

# Variants of: B7
# Conditions: with prpk_human TP53RK
row,Variant,effect of a mutation on the interaction
1,A89V,with no effect
